Experimental data taken from PMC9941103.
“And” between values parts separate entries of the source, which are not always exact repeats. Identical values can stand only once. Blank lines part the entries; values can stand above or below the molecule they belong to.

How the values were obtained:
[1] = biological target: SNAP25(CtoS), cysteine-free variant of SNAP25 (UniProt P60881); assay: cross-linking; 10 µM of one protein alone, 0-1.5 mM BS3, 1 h at 25 °C; gel electrophoresis, Coomassie staining and western blot
[2] = biological target: Synaptobrevin-2 variant lacking the transmembrane helix, Syb(1-96) (UniProt P63045); assay: native MS; SNAP25 and Synaptobrevin-2 mixed 1:1; 200 mM ammonium acetate; conditions: scale: SNAP25 per Synaptobrevin-2
Chain of UniProt P63045 (P63045 1-96, change not shown): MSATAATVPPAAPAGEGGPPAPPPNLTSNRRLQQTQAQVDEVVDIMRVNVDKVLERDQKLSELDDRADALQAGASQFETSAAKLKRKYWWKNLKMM

[3] = biological target: Synaptobrevin-2 variant lacking the transmembrane helix, Syb(1-96) (UniProt P63045); assay: native MS; SNAP25 and Synaptobrevin-2 mixed 1:2 and 2:1; conditions: scale: SNAP25 per Synaptobrevin-2
[4] = biological target: SNAP25(CtoS), cysteine-free variant of SNAP25 (UniProt P60881); assay: native MS; 10 µM of one protein alone, 200 mM ammonium acetate
[5] = biological target: pre-assembled binary SNAP25:Synaptobrevin-2 complex (2:1) (UniProt P60881); assay: native MS; SNAP25 and Synaptobrevin-2 mixed 1:1; 200 mM ammonium acetate
[6] = biological target: T1, full-length Complexin-1, P63041; assay: native MS; 10 µM of one protein alone, 200 mM ammonium acetate; conditions: remark: other sources report otherwise
T1 chain: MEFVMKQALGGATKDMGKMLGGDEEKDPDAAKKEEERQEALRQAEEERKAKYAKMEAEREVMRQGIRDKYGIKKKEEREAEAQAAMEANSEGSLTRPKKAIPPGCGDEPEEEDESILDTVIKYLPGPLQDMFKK

- stoichiometry N [1]: < 5
Molecule: SNAP25(CtoS), cysteine-free variant of SNAP25 (from UniProt P60881 1-206)

- stoichiometry N [2]: 2
- stoichiometry N [3]: 2
- stoichiometry N [4]: 2 and 3
Molecule: SNAP25(CtoS), cysteine-free variant of SNAP25 (from UniProt P60881 1-206) (natural protein)

- stoichiometry N [5]: 2
Molecule: pre-assembled binary SNAP25:Synaptobrevin-2 complex (2:1) (from UniProt P60881 1-206; P63045 1-96)

- stoichiometry N [6]: 2 and 3
B1: full-length Complexin-1, P63041 1-134 (natural protein)
chain: T1 chain
